Patent US6117653

Key:
Assay in all cases: ELISA of pooled CsCl fractions 9-15 of the purified particle
[1] = target: purified HBs antigen particle produced from an HBV sequence construct including the pre-S1 region with total deletion of pre-S2 and deletions upstream of the pre-S2 ATG and the S region with deletion of the S ATG and downstream the S ATG through the XBaI site (e.g. the construct of FIG. 1A) (Hepatitis B virus (subtype not stated for the construct); Hepatitis B virus (subtype not stated))
[2] = target: purified HBs antigen particle produced from an HBV sequence construct including the pre-S2 region with none of the pre-S1 region and deletions upstream of the S ATG and downstream of the S ATG through the XBaI site, and the S region with deletion of the S ATG (e.g. the construct of FIG. 2A) (Hepatitis B virus (subtype not stated for the construct); Hepatitis B virus (subtype not stated))
[3] = target: purified HBs antigen particle produced from an HBV sequence construct including the pre-S2 region with none of the pre-S1 region and deletions upstream of the S ATG and the S region with deletion of the S ATG (e.g., the construct of FIG. 7B) (Hepatitis B virus (subtype not stated for the construct); Hepatitis B virus (subtype not stated))
[4] = target: purified HBs antigen particle produced from an HBV sequence construct including the pre-S1 region with total deletion of pre-S2 and deletions upstream of the pre-S2 ATG and the S region with deletion of the S ATG (e.g., the construct of FIG. 6B) (Hepatitis B virus (subtype not stated for the construct); Hepatitis B virus (subtype not stated))
[5] = target: purified HBs antigen particles produced by construct including the entire pre-S1-pre-S2-S region under control of the LTR region of rous sarcoma virus, with additional cotransfection with S (FIG. 13) (Hepatitis B virus (subtype not stated))

**Q.** With anti-pre-S1 monoclonal antibody MA 18/7 as the substance, how does the E492 [1] read?
**A.** 0.839

**Q.** What about the E492 [2] of the same substance?
**A.** 0

**Q.** And the E492 [3]?
**A.** 0

**Q.** What about the E492 [4] of the same substance?
**A.** 1.27

**Q.** What about the E492 [5] of the same substance?
**A.** 0.125
